Experimental findings from patent US20240091382A1, “MINIMAL BILE ACID INDUCIBLE PROMOTERS FOR GENE THERAPY” (priority 2020, published 2024) are described below.

The chains are these.
B1: imPr+LRH-1: slightly longer imPr variant including the upstream LRH-1 element (SEQ ID NO: 21) (nucleic acid)
DNA: TTTCTAAAGCTTGTTGATACCCTCAGAAGGTCCCCACGCACTCTGGGTTTGGGTTCCTGCTTTGAGTATGTTCGACCTTTCCTCTCATGTCACTGAACTGTGCTAGATCTGGACTTTAGGCCATTGACCTATAAGCAAATAGATAGTGTTCTTAAAAAAGCCTGATTTCTGTTCAATGCTTTATTACCATGAAAACTGAACTTGGAAAGGGGTGTACAACCCTGACTTTCCACAGTGGCGTCTCTCGCTTCTCCTGGCTCCCTCAAATTCACA
modifications: Synthetic imPr+ LRH-1
B2: imPr+3xIR: imPr variant with three extra repeats of the murine IR-1 element (SEQ ID NO: 7) (nucleic acid)
DNA: TTAGGCCATTGACCTATTAGGCCATTGACCTATTAGGCCATTGACCTAGGTTCCTGCTTTGAGTATGTTCGACCTTTCCTCTCATGTCACTGAACTGTGCTAGATCTGGACTTTAGGCCATTGACCTATAAGCAAATAGATAGTGTTCTTAAAAAAGCCTGATTTCTGTTCAATGCTTTATTACCATGAAAACTGAACTTGGAAAGGGGTGTACAACCCTGACTTTCCACAGTGGCGTCTCTCGCTTCTCCTGGCTCCCTCAAATTCACA
modifications: Synthetic imPR+3xIR
B3: imPr+1xIR: imPr variant with one extra repeat of the murine IR-1 element at the 5′end (SEQ ID NO: 6) (nucleic acid)
DNA: TTAGGCCATTGACCTAGGTTCCTGCTTTGAGTATGTTCGACCTTTCCTCTCATGTCACTGAACTGTGCTAGATCTGGACTTTAGGCCATTGACCTATAAGCAAATAGATAGTGTTCTTAAAAAAGCCTGATTTCTGTTCAATGCTTTATTACCATGAAAACTGAACTTGGAAAGGGGTGTACAACCCTGACTTTCCACAGTGGCGTCTCTCGCTTCTCCTGGCTCCCTCAAATTCACA
modifications: Synthetic imPR+1xIR
B4: imPr+5xIR: imPr variant with five extra repeats of the murine IR-1 element (SEQ ID NO: 19) (nucleic acid)
DNA: TTAGGCCATTGACCTATTAGGCCATTGACCTATTAGGCCATTGACCTATTAGGCCATTGACCTATTAGGCCATTGACCTAGGTTCCTGCTTTGAGTATGTTCGACCTTTCCTCTCATGTCACTGAACTGTGCTAGATCTGGACTTTAGGCCATTGACCTATAAGCAAATAGATAGTGTTCTTAAAAAAGCCTGATTTCTGTTCAATGCTTTATTACCATGAAAACTGAACTTGGAAAGGGGTGTACAACCCTGACTTTCCACAGTGGCGTCTCTCGCTTCTCCTGGCTCCCTCAAATTCACA
modifications: Synthetic imPR+5xIR
B5: imPr+3xIR-ER2: imPr variant with three repetitions of the IR-1-ER2 element (SEQ ID NO: 20) (nucleic acid)
DNA: TGGACTTTAGGCCATTGACCTATGGACTTTAGGCCATTGACCTATGGACTTTAGGCCATTGACCTAGGTTCCTGCTTTGAGTATGTTCGACCTTTCCTCTCATGTCACTGAACTGTGCTAGATCTGGACTTTAGGCCATTGACCTATAAGCAAATAGATAGTGTTCTTAAAAAAGCCTGATTTCTGTTCAATGCTTTATTACCATGAAAACTGAACTTGGAAAGGGGTGTACAACCCTGACTTTCCACAGTGGCGTCTCTCGCTTCTCCTGGCTCCCTCAAATTCACA
modifications: Synthetic imPr+3xIR-ER2

The series relates to Huh-7 cells. Briefly: Luciferase expression from BSEP-derived promoter plasmids in Huh-7 cells (FXR co-transfection, CDCA induction). It is filed as cell-based, human. The following applies: Huh-7, pCMV-hFXRα2, 30 μM CDCA. The method, then: FIG. 2. […] In all cases, cells were also transfected with a Renilla expressing plasmid (pRL-CMV). Luciferase and Renilla expression were measured with a luminometer. All samples were tested in triplicates and data are presented as mean±SEM of relative (rel.) units (Luciferase units sec^−1/Renilla units sec^−1). The fold induction of each condition relative to cells transfected only with the luciferase plasmid (Luc plasmid) is indicated on top of each column. The statistical comparison between these two conditions was performed by using an unpaired […] T test. *, p<0.05; **, p<0.01; ***, p<0.001. imPr and ihPr, pAAV-imPr-LucPEST and pAAV-ihPr-LucPEST, respectively; full length mPr, pAAV-mBSEPpr-LucPEST; full length hPr, p-2563/+4-Luc; A1AT, pAAV-A1AT-LucPEST.
FIG. 18. […] In all cases, cells were also transfected with the same amount of Renilla expressing plasmid (pRL-CMV) to determine the transfection efficiency. Luciferase and Renilla expression were measured with a luminometer. All samples were tested in triplicates and data are presented as mean±SEM of relative (rel.) units (Luciferase units sec^−1/Renilla units sec^−1). The fold induction of each condition relative to cells transfected only with the luciferase plasmid (Luc plasmid) is indicated on top of each column. The statistical comparison between these two conditions was performed by using an unpaired T test. *, p<0.05; **, p<0.01; ***, p<0.001; ****, p<0.0001.
The inventors first tested whether luciferase expression could be induced by bile salts in hepatic cells from human (Huh-7 and HepG2) and mouse origin (Hepa1-6). For this purpose, they transfected confluent monolayers of these cells in 12-well plates with 0.5 μg pAAV-miPr-LucPEST or pAAV-hiPr-LucPEST plasmids, or with the same amount of control plasmids (pAAV-mBSEPpr-LucPEST, p-2563/+4-Luc and pAAV-A1AT-LucPEST), together with 0.5 μg of plasmids expressing either human FXRα1 (pcDNA3.1-hFXRα1, ordered from GenScript) or FXRα2 (pCMV-hFXRα2, ref NR1H4 cDNA Resource Center, Bloomsburg, PA), two isoforms of FXR that can exert different transcriptional regulation). […] Furthermore, to normalize luciferase expression, and correct for differences in transfection efficiencies, the inventors also co-transfected cells with 0.2 μg of a plasmid expressing Renilla-luciferase from a constitutive promoter (pRL-CMV, Promega). All transfections were performed using lipofectamine 2000 (Thermo Fisher). […] After induction, cells were collected and luciferase and Renilla expression were measured in cell extracts using an Orion L Microplate Luminometer.
The inventors tested luciferase expression of plasmids containing the variants of imPr promoter in Huh-7 cells as described above. Briefly, the inventors transfected confluent cell monolayers in 12-well plates with 0.5 μg of each of the corresponding plasmids, using as control pAAV-miPr-LucPEST, together with 0.5 μg of pCMV-hFXRa2 using lipofectamine 2000. To normalize luciferase expression, the inventors co-transfected cells with 0.2 μg of a plasmid expressing Renilla-luciferase from a constitutive promoter (pRL-CMV). […] After induction, cells were collected and luciferase and Renilla expression were measured in cell extracts as described.
Consider B1, for which the “level of luciferase expression compared to plasmid containing imPr promoter” value is given as “not observed”.
Consider B2, for which the “level of luciferase expression compared to plasmid containing imPr promoter” value is listed as “significantly higher level of luciferase expression” and the “luciferase expression compared to imPr+1xIR” value was “significantly higher luciferase expression than imPr+1xIR”.
Consider B3, for which the “level of luciferase expression compared to plasmid containing imPr promoter” value is on record as “significantly higher level of luciferase expression”.
In the case of B4, the “level of luciferase expression compared to plasmid containing imPr promoter” value is “not observed”.
Consider B5, for which the “level of luciferase expression compared to plasmid containing imPr promoter” value was “not observed”.
